Data published in patent publication US20240392024A1 (SHANGHAI CELGEN BIO PHARMACEUTICAL, published 2024).
Where “and” joins values, the source holds several entries; their conditions need not be identical. Equal values may be shown once.

T1: human TNFR2 on the cell membrane (human, UniProt P20333 23-461)
T1 construct: whole, on cells; One molecule for all cell formats; also called TNFR2-CHO cells; CHO-TNFR2
T1 sequence (looked up): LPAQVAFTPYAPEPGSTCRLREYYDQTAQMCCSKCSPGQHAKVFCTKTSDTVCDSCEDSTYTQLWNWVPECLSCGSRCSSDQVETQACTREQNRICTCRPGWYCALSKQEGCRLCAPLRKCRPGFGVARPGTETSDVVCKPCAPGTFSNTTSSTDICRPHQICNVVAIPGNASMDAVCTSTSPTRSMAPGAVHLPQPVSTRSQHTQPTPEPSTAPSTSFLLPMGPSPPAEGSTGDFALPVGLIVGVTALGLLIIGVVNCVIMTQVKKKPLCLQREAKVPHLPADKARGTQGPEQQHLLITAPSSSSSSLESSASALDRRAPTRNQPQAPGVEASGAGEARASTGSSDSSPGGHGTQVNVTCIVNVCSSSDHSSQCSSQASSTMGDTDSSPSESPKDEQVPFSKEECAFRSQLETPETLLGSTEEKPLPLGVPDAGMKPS

T2: TNFR2-His (Sino Biological, 10417-H08H, NP_001057.1 Met1-Asp257, with multi-histidine tag expressed on … (human, UniProt P20333 23-257))
T2 construct: range 1-257; Bought protein; also called recombinant human TNFR2 protein; TNFR2-His antigen; not shown: C-terminal multi-histidine tag
T2 sequence (looked up): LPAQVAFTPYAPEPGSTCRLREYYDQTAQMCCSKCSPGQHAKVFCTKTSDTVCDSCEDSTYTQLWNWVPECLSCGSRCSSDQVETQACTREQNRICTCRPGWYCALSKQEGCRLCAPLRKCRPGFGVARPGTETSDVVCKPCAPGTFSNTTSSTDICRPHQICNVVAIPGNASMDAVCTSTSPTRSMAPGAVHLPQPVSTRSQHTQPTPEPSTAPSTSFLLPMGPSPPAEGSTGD


Legend:
[1] = target: T1, human TNFR2 on the cell membrane; test: flow cytometry on CHO-TNFR2 cells
Outline: (§1)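 Flow cytometry on CHO cells stably overexpressing human TNFR2, made by pcDNA3.4-TNFR2 transfection, drug selection and single-clone sorting. Cells in 96-deep-well plates were incubated with serially diluted antibodies, washed and stained with a fluorescent anti-IgG secondary antibody. Samples were read on a Beckman CytoFLEX. EC50 is reported from the dilution series.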

[2] = target: T2, TNFR2-His (Sino Biological, 10417-H08H, …); test: ELISA, plate coated with TNFR2-His (first test)
Outline: (§2)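 ELISA on plates coated with recombinant human TNFR2 carrying a C-terminal His tag, then blocked. Serially diluted antibodies were incubated, followed by an enzyme-labelled anti-IgG secondary antibody. Plates were developed with TMB and read on a microplate reader. EC50 is reported from the dilution series.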

[3] = target: T2, TNFR2-His (Sino Biological, 10417-H08H, …); test: BLI, antibody captured on AHC probe, TNFR2 in solution
Outline: (§3)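 Kon, koff and Kd were derived from kinetic association measurements by bio-layer interferometry on an Octet in Basic Kinetics mode. Antibody-capture sensors held antibodies at 50 nM in Q buffer (10 mM PBS pH 7.4, 0.02% Tween 20, 0.2% BSA). These sensors were then placed in recombinant human TNFR2, diluted 2-fold in Q buffer from a top concentration of 100 nM.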

[4] = target: T2, TNFR2-His (Sino Biological, 10417-H08H, …); test: BLI, antibody captured on AHC probe, TNFR2-His in solution
Outline: as §3

[5] = target: T1, human TNFR2 on the cell membrane; test: flow cytometry, CHO-TNFR2 cells
Outline: as §1

[6] = target: T2, TNFR2-His (Sino Biological, 10417-H08H, …); test: ELISA, coated TNFR2-His
Outline: as §2

[7] = target: T1, human TNFR2 on the cell membrane; test: flow cytometry on CHO-TNFR2 cells; remark: listed apart in the source
Outline: as §1

[8] = target: T2, TNFR2-His (Sino Biological, 10417-H08H, …); test: ELISA, plate coated with TNFR2-His
Outline: as §2

Binder | EC50 [1] | EC50 [2] | Kd [3] | koff [3] | kon [3] | Kd [4] | koff [4] | kon [4] | EC50 [5] | EC50 [6] | EC50 [7] | EC50 [8]
11G2huVH4 + huVL3(P07274) (antibody, V domains shown, Humanized 11G2) VH: QVQLVQSGAEVKKPGASVKVSCKASGYTFITYDINWVRQAPGQGLEWIGWIYPRDGNTQYAQKFQGRVTMTTDTSTSTAYMELRSLRSDDTAVYYCARGDRDYGYFDVWGQGTTVTVSS VL: DIQMTQSPSSLSASVGDRVTITCQASQDISNYLNWYQQKPGKAPKLLIYFKSKLETGVPSRFSGSGSGTDFTFTISSLQPEDIATYYCQQGNTLPLTFGGGTKLEIK |  |  |  |  |  | 20100 pM | 0.00511 s⁻¹ | 254000 M⁻¹ s⁻¹ | 226 pM | 500 pM | 0.0338 µg/mL | 0.0746 µg/mL
11G2huVH4 + huVL2(P07269) (antibody, V domains shown, Humanized 11G2) VH: QVQLVQSGAEVKKPGASVKVSCKASGYTFITYDINWVRQAPGQGLEWIGWIYPRDGNTQYAQKFQGRVTMTTDTSTSTAYMELRSLRSDDTAVYYCARGDRDYGYFDVWGQGTTVTVSS VL: DIQMTQSPSSLSASVGDRVTITCRASQDISNYLNWYQQKPGKAPKLLIYFKSKLHSGVPSRFSGSGSGTDFTLTISSLQPEDFATYYCQQGNTLPLTFGGGTKLEIK |  |  |  |  |  | 13500 pM | 0.00379 s⁻¹ | 281000 M⁻¹ s⁻¹ | 183 pM | 364 pM | 0.0273 µg/mL | 0.0544 µg/mL

Results, then the binder that gave them:

EC50 [1] | EC50 [2] | Kd [3] | koff [3] | kon [3] | Kd [4] | koff [4] | kon [4] | EC50 [5] | EC50 [6] | EC50 [7] | EC50 [8] | Binder
0.0215 µg/mL and 0.144 nM | 0.0416 µg/mL and 0.279 nM | 4840 pM | 0.00379 s⁻¹ | 782000 M⁻¹ s⁻¹ |  |  |  |  |  |  |  | 12E12huVH4 + huVL4(P07291) (antibody, V domains shown, Humanized 12E12) VH: EVQLVQSGAEVKKPGATVKISCKVSGFNIKDFYIHWVQQAPGKGLEWIGRVDPEDGNTEYAPNFQDRVTITADTSTDTAYMELSSLRSEDTAVYYCSTWDGFSYFDYWGQGTTVTVSS VL: EAVVTQSPATLSLSPGERATLSCRSSTGPVTTNNYANWVQQKPGQAFRGLIGGTNDRAPGIPARFSGSGSGTDTTLTISSLQPEDFAVYYCALWYRNHWVFGGGTKLEIK
 |  |  |  |  | 8130 pM | 0.00265 s⁻¹ | 326000 M⁻¹ s⁻¹ | 162 pM | 353 pM | 0.0242 µg/mL | 0.0527 µg/mL | 11G2huVH5 + huVL2(P07270) (antibody, V domains shown, Humanized 11G2) VH: QVQLVQSGAEVKKPGASVKVSCKASGYTFITYDINWVRQATGQGLEWIGWIYPRDGNTQYAQKFQGRVTMTRNTSISTAYMELSSLRSEDTAVYYCARGDRDYGYFDVWGQGTTVTVSS VL: DIQMTQSPSSLSASVGDRVTITCRASQDISNYLNWYQQKPGKAPKLLIYFKSKLHSGVPSRFSGSGSGTDFTLTISSLQPEDFATYYCQQGNTLPLTFGGGTKLEIK
 |  |  |  |  | 14100 pM | 0.00302 s⁻¹ | 213000 M⁻¹ s⁻¹ | 56 pM | 149 pM | 0.0084 µg/mL | 0.0222 µg/mL | 11G2huVH5 + huVL3(P07275) (antibody, V domains shown, Humanized 11G2) VH: QVQLVQSGAEVKKPGASVKVSCKASGYTFITYDINWVRQATGQGLEWIGWIYPRDGNTQYAQKFQGRVTMTRNTSISTAYMELSSLRSEDTAVYYCARGDRDYGYFDVWGQGTTVTVSS VL: DIQMTQSPSSLSASVGDRVTITCQASQDISNYLNWYQQKPGKAPKLLIYFKSKLETGVPSRFSGSGSGTDFTFTISSLQPEDIATYYCQQGNTLPLTFGGGTKLEIK
